Laboratory results published in patent publication US7091173 (MYRIAD GENETICS, dated 2006).

Target: T1, FKBP-associated protein FAP48 (FAP48), amino acids 118-418, bait fused to the Gal4 DNA binding domain (human, UniProt P04386 1-147 (Saccharomyces cerevisiae entry))
T1 construct: range 1-147; Bait of the yeast two-hybrid screen; The coordinates 118-418 are counted on GenBank U73704
Assay: yeast two-hybrid; listed as prey of the bait in 'Binding Regions of FAP48 and Its Interacting Partners'; true positive by beta-galactosidase assay
From the text: The new construct was selected directly in the yeast strain PNY200 for its ability to drive tryptophane synthesis (genotype of this strain: MATα trp1-901 leu2-3, 112 ura3-52 his3-200 ade2 gal4Δ gal80). In these yeast cells, the bait was produced as a C-terminal fusion protein with the DNA binding domain of the transcription factor Gal4 (amino acids 1 to 147). Prey libraries were transformed into the yeast strain BK100 (genotype of this strain: MATa trp1-901 leu2-3,112 ura3-52 his3-200 gal4Δ gal80 LYS2::GAL-HIS3 GAL2-ADE2 met2::GAL7-lacZ), and selected for the ability to drive leucine synthesis. In these yeast cells, each cDNA was expressed as a fusion protein with the transcription activation domain of the transcription factor Gal4 (amino acids 768 to 881) and a 9 amino acid hemagglutinin epitope tag. PNY200 cells (MATα mating type), expressing the bait, were then mated with BK100 cells (MATa mating type), expressing prey proteins from a prey library. The resulting diploid yeast cells expressing proteins interacting with the bait protein were selected for the ability to synthesize tryptophan, leucine, histidine, and adenine. […]

binding result: binds
B1: Dynactin (DCTN1(1278), p150-Glued), amino acids 1063-1205, prey fused to the Gal4 activation domain (other, UniProt P04386 768-881, looked up, not shown: small tags and cut ends)
chain: ANFNQSGNIADSSLSFTFTNSSNGPNLITTQTNSQALSQPIASSNVHDNFMNNEITASKIDDGNNSKPLSPGWTDQTAYNAFGITTGMFNTTTMDDVYNYLFDDEDTPPNPKKEIAGEEQQRGAIPGQAPGSVPGPGLVKDSPLLLQQISAMRLHISQLQHENSILKGAQMKASLASLPPLHVAKLSHEGPGSELPAGALYRKTSQLLETLNQLSTHTHVVDITRTSPAAKSPSAQLMEQVAQLKSLSDTVEKLKDE
notes: range 768-881;range 1063-1205; Prey clone of the yeast two-hybrid screen; Coordinates are counted on the GenBank entry; also called 150 kD dynein-associated polypeptide; DP-150
